Results on 5 substances are retold here after article PMC6202052.

The target in assay [1] is Notch1 expressed in N1rep ES cells (UniProt Q01705).
The target in assay [2] is biotinylated human N1 ectodomain fragment containing EGF repeats 6–15 (human) (UniProt P46531). Kind of assay: BLI; BLItz instrument; biotinylated Notch1 fragment loaded on streptavidin biosensors, dipped into ligand samples of varying concentration until equilibrium; HBS-P buffer with 0.005% surfactant P20 and 5 mM CaCl2; equilibrium curves fitted with a one site specific binding model. A general note: BLI is a label-free optical method that tracks binding on a fibre tip over time.
biotinylated human N1 ectodomain fragment containing EGF repeats 6–15 (human), sequence (P46531 216-604): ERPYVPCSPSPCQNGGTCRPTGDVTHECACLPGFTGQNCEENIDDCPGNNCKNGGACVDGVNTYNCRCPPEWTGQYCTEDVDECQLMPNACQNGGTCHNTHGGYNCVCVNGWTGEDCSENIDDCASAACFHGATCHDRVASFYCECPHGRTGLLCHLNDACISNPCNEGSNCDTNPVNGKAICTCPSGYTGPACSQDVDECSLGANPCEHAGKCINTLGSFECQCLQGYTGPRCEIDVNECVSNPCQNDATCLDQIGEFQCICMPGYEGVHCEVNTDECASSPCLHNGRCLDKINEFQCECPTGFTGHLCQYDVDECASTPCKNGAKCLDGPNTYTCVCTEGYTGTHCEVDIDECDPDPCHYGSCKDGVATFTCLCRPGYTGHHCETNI

The target in assay [3] is Notch1 expressed in N1rep ES cells (UniProt Q01705). The source holds these as a separate data set.
Assay [4] deals with Notch2 expressed in N2rep ES cells (UniProt O35516).

Notch1 expressed in N1rep ES cells, sequence (Q01705 19-2531): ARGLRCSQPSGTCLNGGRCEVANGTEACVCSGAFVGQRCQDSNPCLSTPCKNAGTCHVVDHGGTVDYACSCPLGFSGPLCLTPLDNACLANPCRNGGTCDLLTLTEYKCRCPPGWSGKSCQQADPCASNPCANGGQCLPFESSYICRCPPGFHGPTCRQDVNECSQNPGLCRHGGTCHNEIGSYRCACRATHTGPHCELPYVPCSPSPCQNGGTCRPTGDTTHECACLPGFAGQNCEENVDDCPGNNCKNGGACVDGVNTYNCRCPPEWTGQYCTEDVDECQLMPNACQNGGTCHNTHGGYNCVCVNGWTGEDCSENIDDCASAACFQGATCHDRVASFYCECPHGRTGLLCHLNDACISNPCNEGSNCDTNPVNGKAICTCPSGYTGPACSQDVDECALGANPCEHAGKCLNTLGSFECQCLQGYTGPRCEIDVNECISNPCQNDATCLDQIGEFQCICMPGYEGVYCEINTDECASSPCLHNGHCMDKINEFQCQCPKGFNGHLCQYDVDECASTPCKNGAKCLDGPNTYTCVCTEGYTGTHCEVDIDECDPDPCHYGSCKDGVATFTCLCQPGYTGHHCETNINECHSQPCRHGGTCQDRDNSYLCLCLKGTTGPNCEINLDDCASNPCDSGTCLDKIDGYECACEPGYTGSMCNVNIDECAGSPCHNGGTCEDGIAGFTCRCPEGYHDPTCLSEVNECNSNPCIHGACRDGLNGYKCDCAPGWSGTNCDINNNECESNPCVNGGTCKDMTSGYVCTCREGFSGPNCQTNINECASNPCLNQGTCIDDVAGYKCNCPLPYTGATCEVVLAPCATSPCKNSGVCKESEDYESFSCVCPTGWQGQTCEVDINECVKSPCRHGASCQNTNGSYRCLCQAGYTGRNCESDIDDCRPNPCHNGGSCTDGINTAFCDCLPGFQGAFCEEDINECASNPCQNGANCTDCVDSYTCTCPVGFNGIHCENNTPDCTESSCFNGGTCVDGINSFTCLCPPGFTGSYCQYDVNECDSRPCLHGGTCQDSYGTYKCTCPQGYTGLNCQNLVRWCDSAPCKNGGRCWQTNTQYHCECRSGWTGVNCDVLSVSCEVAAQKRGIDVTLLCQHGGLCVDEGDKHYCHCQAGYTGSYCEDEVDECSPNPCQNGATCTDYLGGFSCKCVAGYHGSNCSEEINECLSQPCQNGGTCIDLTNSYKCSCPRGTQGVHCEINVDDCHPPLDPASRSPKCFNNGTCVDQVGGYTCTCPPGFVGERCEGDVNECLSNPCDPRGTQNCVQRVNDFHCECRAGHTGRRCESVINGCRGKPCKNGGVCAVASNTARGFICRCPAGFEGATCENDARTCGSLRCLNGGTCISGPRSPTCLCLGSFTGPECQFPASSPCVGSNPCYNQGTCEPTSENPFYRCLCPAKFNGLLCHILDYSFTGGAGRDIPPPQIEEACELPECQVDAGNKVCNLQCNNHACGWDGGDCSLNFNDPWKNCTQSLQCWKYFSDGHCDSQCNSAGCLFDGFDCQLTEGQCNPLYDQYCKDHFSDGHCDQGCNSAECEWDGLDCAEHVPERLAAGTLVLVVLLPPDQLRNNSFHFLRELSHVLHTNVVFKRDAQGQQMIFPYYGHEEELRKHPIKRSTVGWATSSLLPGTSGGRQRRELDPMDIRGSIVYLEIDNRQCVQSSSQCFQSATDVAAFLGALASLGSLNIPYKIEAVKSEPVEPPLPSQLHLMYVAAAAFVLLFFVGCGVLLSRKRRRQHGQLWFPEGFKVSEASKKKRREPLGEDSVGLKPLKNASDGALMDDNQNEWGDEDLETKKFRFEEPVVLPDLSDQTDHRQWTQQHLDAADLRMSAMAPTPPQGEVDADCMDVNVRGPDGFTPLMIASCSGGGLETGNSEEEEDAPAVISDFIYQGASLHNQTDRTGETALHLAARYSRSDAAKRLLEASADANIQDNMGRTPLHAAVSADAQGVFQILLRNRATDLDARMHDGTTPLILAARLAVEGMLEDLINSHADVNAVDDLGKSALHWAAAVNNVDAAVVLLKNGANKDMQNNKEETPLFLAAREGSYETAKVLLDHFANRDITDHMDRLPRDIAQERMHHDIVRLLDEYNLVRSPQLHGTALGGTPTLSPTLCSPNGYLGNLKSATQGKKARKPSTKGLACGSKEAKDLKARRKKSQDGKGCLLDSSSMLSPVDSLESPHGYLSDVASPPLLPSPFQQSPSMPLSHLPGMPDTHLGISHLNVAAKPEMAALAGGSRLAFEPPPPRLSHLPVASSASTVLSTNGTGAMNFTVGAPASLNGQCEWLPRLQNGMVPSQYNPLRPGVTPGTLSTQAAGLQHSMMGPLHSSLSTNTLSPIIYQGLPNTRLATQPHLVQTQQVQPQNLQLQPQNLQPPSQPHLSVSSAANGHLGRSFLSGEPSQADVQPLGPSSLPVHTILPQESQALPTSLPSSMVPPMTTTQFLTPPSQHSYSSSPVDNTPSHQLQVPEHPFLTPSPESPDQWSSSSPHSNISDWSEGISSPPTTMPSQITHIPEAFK
mDLL4 (mouse DLL4, full length, expressed on ES cells), sequence (Q9JI71 27-686): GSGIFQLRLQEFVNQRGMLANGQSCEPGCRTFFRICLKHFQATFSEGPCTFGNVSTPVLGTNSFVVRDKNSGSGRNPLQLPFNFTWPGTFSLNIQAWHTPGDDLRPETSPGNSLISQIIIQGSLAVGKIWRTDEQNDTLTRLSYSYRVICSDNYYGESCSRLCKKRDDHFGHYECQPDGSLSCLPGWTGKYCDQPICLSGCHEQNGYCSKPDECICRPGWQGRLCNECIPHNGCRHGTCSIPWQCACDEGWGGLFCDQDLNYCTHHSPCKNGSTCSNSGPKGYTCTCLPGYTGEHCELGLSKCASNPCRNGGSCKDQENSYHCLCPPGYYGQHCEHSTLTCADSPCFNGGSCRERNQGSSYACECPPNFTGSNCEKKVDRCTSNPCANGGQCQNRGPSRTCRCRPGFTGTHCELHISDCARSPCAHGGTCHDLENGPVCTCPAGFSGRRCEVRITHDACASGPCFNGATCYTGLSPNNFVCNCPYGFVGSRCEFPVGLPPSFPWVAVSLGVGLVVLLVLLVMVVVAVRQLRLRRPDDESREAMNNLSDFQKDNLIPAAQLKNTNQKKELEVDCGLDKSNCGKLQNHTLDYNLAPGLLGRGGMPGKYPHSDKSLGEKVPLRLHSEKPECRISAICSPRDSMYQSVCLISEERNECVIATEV
mDLL1 (mouse DLL1, full length, expressed on ES cells), sequence (Q61483 18-722): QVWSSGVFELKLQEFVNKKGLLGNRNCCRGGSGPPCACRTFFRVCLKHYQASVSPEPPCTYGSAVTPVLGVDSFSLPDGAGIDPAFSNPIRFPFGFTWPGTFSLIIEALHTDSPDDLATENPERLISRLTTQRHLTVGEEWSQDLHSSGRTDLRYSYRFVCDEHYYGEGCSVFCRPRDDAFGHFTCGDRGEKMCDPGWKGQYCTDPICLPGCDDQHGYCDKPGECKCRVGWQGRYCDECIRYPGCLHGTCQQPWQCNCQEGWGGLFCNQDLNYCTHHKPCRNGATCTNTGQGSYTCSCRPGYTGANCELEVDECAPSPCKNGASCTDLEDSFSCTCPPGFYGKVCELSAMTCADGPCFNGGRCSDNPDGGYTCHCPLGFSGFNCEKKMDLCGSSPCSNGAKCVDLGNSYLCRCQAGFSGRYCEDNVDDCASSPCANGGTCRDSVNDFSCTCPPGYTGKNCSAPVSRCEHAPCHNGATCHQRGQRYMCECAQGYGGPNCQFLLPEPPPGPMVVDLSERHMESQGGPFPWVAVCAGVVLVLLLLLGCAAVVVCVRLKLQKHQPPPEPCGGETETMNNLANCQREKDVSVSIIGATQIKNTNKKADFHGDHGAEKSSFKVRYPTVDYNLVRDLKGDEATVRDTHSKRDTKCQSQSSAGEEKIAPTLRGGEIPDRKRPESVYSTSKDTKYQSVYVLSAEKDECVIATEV

Take “mDLL1 (mouse DLL1, full length, expressed on ES cells) (from UniProt Q61483 18-722) (ligand)”: the luciferase Notch reporter in N1rep ES cells co-cultured with DLL1-expressing ES cells, against the basal signal with E14 ES cells in assay [1] was determined as 10 fold.
With “D4contD1 (DLL4 N-terminus through EGF5 with the N1 contact amino acids of the MNNL and DSL domains replaced by those of DLL1) (domain or fragment)”, in assay [2], the Kd is 0.327 µM.
The same measure, in the same setting: to “D1contD4 (DLL1 N-terminus through EGF5 with the N1 contact amino acids of the MNNL and DSL domains replaced by those of DLL4) (domain or fragment)” belongs 0.326 µM.
On the same count and under the same terms, under “D4^N109G (DLL4 N-terminus through EGF5 with the N109G mutation) (from UniProt Q9JI71 27-686) (domain or fragment)” stands 0.341 µM.
Turning to “mDLL4 (mouse DLL4, full length, expressed on ES cells) (from UniProt Q9JI71 27-686) (ligand)”, in assay [3], the luciferase Notch reporter in N1rep ES cells co-cultured with ligand-expressing ES cells; activation by DLL4 as fold of activation by DLL1, non-normalized was 12.5 fold of DLL1; the luciferase Notch reporter in N1rep ES cells co-cultured with ligand-expressing ES cells; activation by DLL4 normalized to DLL1 activation and corrected for protein expression and cell surface levels was 9.42 fold of DLL1. Also, in assay [4], the luciferase Notch reporter in N2rep ES cells co-cultured with ligand-expressing ES cells; activation by DLL4 as fold of activation by DLL1, non-normalized is 0.468 fold of DLL1; the luciferase Notch reporter in N2rep ES cells co-cultured with ligand-expressing ES cells; activation by DLL4 normalized to DLL1 activation and corrected for protein expression and cell surface levels is 0.35 fold of DLL1.

Broadly, the Kd is the free concentration of one partner at which half of the binding sites on the other are occupied at equilibrium, for simple one-to-one binding.
